Source: patent US20180066015A1, “INHIBITORS OF GROWTH FACTOR ACTIVATION ENZYMES” (Washington University, published 2018)
Like-named read-outs stand apart in the source and are kept apart here. Primed or numbered codes have the meaning given here. *: point of attachment. kt = C-terminal ketothiazole, c1csc(*)n1; kt″ = ketothiazole, c1csc(*)n1

B1: Ac-KRLR(SEQ ID NO: 8)-kt (peptide)
peptide: Ac-KRLR-kt
SMILES: CC(=O)N[C@@H](CCCCN)C(=O)N[C@@H](CCCNC(=N)N)C(=O)N[C@@H](CC(C)C)C(=O)N[C@@H](CCCNC(=N)N)C(=O)c1nccs1
B2: Ac-KQLR(SEQ ID NO: 1)-kt (peptide)
peptide: Ac-KQLR-{kt″}
SMILES: CC(=O)N[C@@H](CCCCN)C(=O)N[C@@H](CCC(N)=O)C(=O)N[C@@H](CC(C)C)C(=O)N[C@@H](CCCNC(=N)N)C(=O)c1nccs1
B3: Ac-SWLR(SEQ ID NO: 17)-kt (peptide)
peptide: Ac-SWLR-kt
SMILES: CC(=O)N[C@@H](CO)C(=O)N[C@@H](Cc1c[nH]c2ccccc12)C(=O)N[C@@H](CC(C)C)C(=O)N[C@@H](CCCNC(=N)N)C(=O)c1nccs1

Experiments:
[1] = biological target: Ac-Ala-Arg-Leu-P1-ACC, P1 = L-Pro (P)
[2] = biological target: Ac-Ala-Arg-Leu-P1-ACC, P1 = L-Thr (T)
[3] = biological target: Ac-Ala-Arg-Leu-P1-ACC, P1 = L-Trp (W)
[4] = biological target: Ac-Ala-Arg-Leu-P1-ACC, P1 = L-Asn (N)
[5] = biological target: Ac-Ala-Arg-Leu-P1-ACC, P1 = L-His (H)
[6] = biological target: Ac-Ala-Arg-Leu-P1-ACC, P1 = L-Tyr (Y)
[7] = biological target: Ac-Ala-Arg-Leu-P1-ACC, P1 = L-Ala (A)
[8] = biological target: Ac-Ala-Arg-Leu-P1-ACC, P1 = L-Lys (K)
[9] = biological target: Ac-Ala-Arg-Leu-P1-ACC, P1 = Gly (G)
[10] = biological target: Ac-Ala-Arg-Leu-P1-ACC, P1 = L-Glu (E)
[11] = biological target: Ac-Ala-Arg-Leu-P1-ACC, P1 = L-Leu (L)
[12] = biological target: Ac-Ala-Arg-Leu-P1-ACC, P1 = L-Val (V)
Ac-Ala-Arg-Leu-Arg-ACC [13] = biological target: Ac-Ala-Arg-Leu-Arg-ACC
[14] = biological target: Ac-Ala-Arg-Leu-P1-ACC, P1 = L-Gln (Q)
[15] = biological target: Ac-Ala-Arg-Leu-P1-ACC, P1 = L-Asp (D)
[16] = biological target: Ac-Ala-Arg-Leu-P1-ACC, P1 = L-Ser (S)
[17] = biological target: Ac-Ala-Arg-Leu-P1-ACC, P1 = L-Met (M)
[18] = biological target: Ac-Ala-Arg-Leu-P1-ACC, P1 = L-Ile (I)
[19] = biological target: Ac-Ala-Arg-Leu-P1-ACC, P1 = L-Phe (F)
Ac-Ala-Arg-Leu-Arg-ACC [20] = biological target: Ac-Ala-Arg-Leu-Arg-ACC; remark: listed apart in the source
[21] = biological target: Ac-His(3Bom)-Agp-hLeu-Arg-ACC
Boc-QAR-AMC = biological target: T1, Boc-QAR-AMC
T1 sequence (peptide, N-terminal Boc; C-terminal AMC): QAR

[22] = biological target: Hepatocyte Growth Factor Activator (HGFA) serine protease domain, N-terminal His-tag, recombinant (Homo sapiens (Human)) (UniProt Q04756)
[23] = biological target: T2, matriptase (Charles Craik, UCSF), recombinant (Homo sapiens (Human), UniProt Q9Y5Y6); experiment: fluorogenic inhibition assay
T2 sequence: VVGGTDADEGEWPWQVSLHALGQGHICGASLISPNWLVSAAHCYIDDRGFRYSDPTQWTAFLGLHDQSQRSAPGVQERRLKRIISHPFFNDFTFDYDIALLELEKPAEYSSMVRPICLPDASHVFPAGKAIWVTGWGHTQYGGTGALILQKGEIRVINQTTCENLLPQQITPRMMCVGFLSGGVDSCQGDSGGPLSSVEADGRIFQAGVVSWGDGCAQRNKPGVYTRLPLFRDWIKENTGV
Procedure: (§1) Inhibitors (11-pt serial dilutions, 0-20 μM final concentration in reaction) were serially diluted in DMSO (2% DMSO final concentration) and then mixed with either recombinant serine protease domain of HGFA [Z. Han, P. K. Harris, D. E. Jones, R. Chugani, T. Kim, M. Agarwal, W. Shen, S. A. Wildman, J. W. Janetka, Acs Med Chem Lett 2014, 5, 1219-1224], matriptase (Charles Craik, UCSF) or hepsin* (#4776-SE-010, R&D Systems, Minneapolis, Minn.) in black 384 well plates (Corning #3575. Corning, N.Y.). […] The final substrate concentrations for all assays were at the Kₘ for the respective enzymes. Changes in fluorescence (excitation at 380 nm and emission at 460 nm) were measured at room temperature over time in a Biotek Synergy 2 plate reader (Winnoski, Vt.). Using GraphPad Prism version 6.04 software program, (GraphPad Software, San Diego, Calif., www.graphpad.com), a four parameter curve fit was used to determine the inhibitor IC₅₀s from a plot of the mean reaction velocity versus the inhibitor concentration. The IC₅₀ values represent the average of three separate experimental determinations.

[24] = biological target: Recombinant human hepsin (4776-SE-010, R&D Systems), activated (human, UniProt P05981); experiment: fluorogenic inhibition assay
Procedure: as §1

[25] = biological target: Hepatocyte Growth Factor Activator (HGFA) serine protease domain, N-terminal His-tag, recombinant (Homo sapiens (Human)) (UniProt Q04756); experiment: fluorogenic inhibition assay
[26] = biological target: Recombinant human hepsin (4776-SE-010, R&D Systems), activated (human) (UniProt P05981)
[27] = biological target: T3, matriptase (Charles Craik, UCSF), recombinant (Homo sapiens (Human)) (UniProt Q9Y5Y6)
T3 sequence: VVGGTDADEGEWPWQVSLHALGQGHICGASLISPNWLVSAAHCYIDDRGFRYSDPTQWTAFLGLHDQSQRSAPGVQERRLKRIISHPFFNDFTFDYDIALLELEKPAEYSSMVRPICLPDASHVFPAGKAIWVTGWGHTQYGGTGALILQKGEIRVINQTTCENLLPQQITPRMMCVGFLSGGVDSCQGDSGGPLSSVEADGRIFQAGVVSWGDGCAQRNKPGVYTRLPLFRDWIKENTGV

[28] = biological target: Hepatocyte Growth Factor Activator (HGFA) serine protease domain, N-terminal His-tag, recombinant (Homo sapiens (Human)) (UniProt Q04756); remark: listed apart in the source
recombinant thrombin = experiment: chromogenic inhibition assay
Factor Xa = experiment: chromogenic inhibition assay
[29] = biological target: Hepatocyte Growth Factor Activator (HGFA) serine protease domain, N-terminal His-tag, recombinant (Homo sapiens (Human)) (UniProt Q04756); experiment: fluorogenic inhibition assay; remark: listed apart in the source
[30] = biological target: T2, matriptase (Charles Craik, UCSF), …; experiment: fluorogenic inhibition assay; remark: listed apart in the source

Row | Molecule | % activity, P1 position [1] [%] | % activity, P1 position [2] [%] | % activity, P1 position [3] [%] | % activity, P1 position [4] [%] | % activity, P1 position [5] [%] | % activity, P1 position [6] [%] | % activity, P1 position [7] [%] | % activity, P1 position [8] [%] | % activity, P1 position [9] [%] | % activity, P1 position [10] [%] | % activity, P1 position [11] [%] | % activity, P1 position [12] [%] | % activity, P1 position (Ac-Ala-Arg-Leu-Arg-ACC [13]) [%] | % activity, P1 position [14] [%] | Ki [23] [nM] | Ki [24] [nM] | Ki [25] [nM] | IC50 of enzyme inhibition [26] [nM] | IC50 of enzyme inhibition [27] [nM] | IC50 of enzyme inhibition [28] [nM] | other results
1 | Hepatocyte Growth Factor Activator (HGFA) serine protease domain, N-terminal His-tag, recombinant (from UniProt Q04756) (enzyme) | 0 | 0 | 0.73 | 0 | 0 | 0 | 0 | 0.99 | 0 | 0 | 0 | 0 | 100 | 0 | – | – | – | – | – | – | % activity, P1 position [15]: 0%; % activity, P1 position [16]: 0%; % activity, P1 position [17]: 0%; % activity, P1 position [18]: 0%; % activity, P1 position [19]: 0%; kcat/KM (NH2-Leu-DTrp-Nle-Arg-ACC): 17700; kcat/KM (Ac-Agp-hArg-Leu-Arg-ACC): 41300; kcat/KM (Ac-Ala-Arg-Leu-Arg-ACC [20]): 3140; kcat/KM [21]: 28100; Km of fluorogenic substrate (Boc-QLR-AMC): 37 µM
2 | Recombinant human hepsin (4776-SE-010, R&D Systems), activated (from UniProt P05981) (enzyme) | 0.04 | 0.45 | 0.7 | 0 | 0.17 | 0.3 | 0.49 | 2.34 | 0.07 | 0.13 | 0.03 | 0 | 100 | 0 | – | – | – | – | – | – | % activity, P1 position [15]: 0%; % activity, P1 position [16]: 0.2%; % activity, P1 position [17]: 0%; % activity, P1 position [18]: 0.08%; % activity, P1 position [19]: 0.12%; Km of fluorogenic substrate (Boc-QAR-AMC): 156 µM
3 | B1 | – | – | – | – | – | – | – | – | – | – | – | – | – | – | 1.1 | 0.57 | 12 | 5 | 14 | 225 | EC50 of inhibition of c-MET phosphorylation (Y1234/1235) in MDA-MB-231 cells treated with pro-HGF/HGFA reactions [22]: 180 nM
4 | B2 | – | – | – | – | – | – | – | – | – | – | – | – | – | – | 1.6 | 0.19 | 70 | 2 | 5 | 445 | Ki (recombinant thrombin): > 20000 nM; Ki (Factor Xa): 170 nM; Ki [29]: 53 nM
5 | B3 | – | – | – | – | – | – | – | – | – | – | – | – | – | – | 69 | 1.2 | 63 | 9 | 175 | 435 | Ki [30]: 66 nM; Ki (recombinant thrombin): 3700 nM; Ki (Factor Xa): 759 nM; Ki [29]: 66 nM
